Reference: US20230416345A1, “NEW TYPE II COLLAGEN BINDING PROTEINS” (Navigo Proteins GmbH, priority 2020, published 2023)

Tests used:
BSA = BSA (Bos taurus, UniProt P02769); assay: SPR control BSA; type: binding
Procedure: (§1) The purified proteins were immobilized on a CM-5 sensor chip (GE Healthcare) using NHS/EDC after PDEA activation resulting in 110-140 RU with a Biacore 3000 system (GE Healthcare). The chip was equilibrated with SPR running buffer (PBS 0.05% Tween pH 7.3). Upon binding, target analyte was accumulated on the surface increasing the refractive index. This change in the refractive index was measured in real time and plotted as response or resonance units versus time. The analytes were applied to the chip in serial dilutions with a flow rate of 30 μl/min. The association was performed for 120 seconds and the dissociation for 120 seconds. After each run, the chip surface was regenerated with 30 μl regeneration buffer (10 mM glycine pH 2.0) and equilibrated with running buffer.
(§2) Binding studies were carried out by the use of the BIAcore 3000 (GE Healthcare); data evaluation was operated via the BIAevaluation 3.0 software, provided by the manufacturer, using the Langmuir 1:1 model (RI=0). Evaluated dissociation constants (KD) were standardized against the immobilized protein and indicated. Shown is the change in refractive index measured in real time and plotted as response or resonance unit [RU] versus time [sec].

human collagen type III = biological target: T1, human collagen type III (Homo sapiens, UniProt P02461); assay: ELISA specificity vs human collagen type III; type: binding
T1 construct: purchased Abcam ab7535
T1 sequence (P02461 154-1221 limits assumed): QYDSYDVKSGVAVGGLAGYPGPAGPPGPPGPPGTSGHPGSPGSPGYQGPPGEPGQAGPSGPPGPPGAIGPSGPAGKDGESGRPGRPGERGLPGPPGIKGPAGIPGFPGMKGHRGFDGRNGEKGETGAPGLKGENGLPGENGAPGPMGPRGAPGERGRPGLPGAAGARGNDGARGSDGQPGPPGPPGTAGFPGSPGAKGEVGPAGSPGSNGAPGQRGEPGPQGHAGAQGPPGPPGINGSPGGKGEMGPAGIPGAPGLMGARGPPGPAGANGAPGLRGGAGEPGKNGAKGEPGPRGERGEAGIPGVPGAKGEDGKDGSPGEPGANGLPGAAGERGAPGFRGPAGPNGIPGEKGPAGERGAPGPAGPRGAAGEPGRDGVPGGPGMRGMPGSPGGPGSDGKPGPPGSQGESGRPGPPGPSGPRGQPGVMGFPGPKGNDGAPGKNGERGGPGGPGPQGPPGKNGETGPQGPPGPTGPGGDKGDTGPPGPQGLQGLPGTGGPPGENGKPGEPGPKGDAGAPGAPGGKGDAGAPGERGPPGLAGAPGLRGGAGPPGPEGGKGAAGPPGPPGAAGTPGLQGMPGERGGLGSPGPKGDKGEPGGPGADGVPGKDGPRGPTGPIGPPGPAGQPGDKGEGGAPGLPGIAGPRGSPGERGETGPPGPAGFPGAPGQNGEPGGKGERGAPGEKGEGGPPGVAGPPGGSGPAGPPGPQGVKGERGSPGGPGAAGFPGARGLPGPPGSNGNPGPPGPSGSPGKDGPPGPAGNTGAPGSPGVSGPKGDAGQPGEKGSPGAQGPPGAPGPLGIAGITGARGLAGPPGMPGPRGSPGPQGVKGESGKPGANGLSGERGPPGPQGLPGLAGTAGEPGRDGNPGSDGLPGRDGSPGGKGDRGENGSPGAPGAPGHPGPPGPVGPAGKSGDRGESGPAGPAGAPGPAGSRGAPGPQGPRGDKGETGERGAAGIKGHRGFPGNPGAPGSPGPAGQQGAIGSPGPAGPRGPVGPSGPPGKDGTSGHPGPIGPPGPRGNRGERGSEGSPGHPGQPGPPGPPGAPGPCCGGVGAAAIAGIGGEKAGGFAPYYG
Procedure: (§3) High binding plates (Greiner, 781061) were immobilized with 2.5 μg/ml recombinant human collagen type II (h Col II, Chondrex, CHX-20051), rabbit collagen type II (rbCol II, prepared from rabbit eyes), porcine collagen type II (p Col II, prepared from porcine eyes), human collagen type I, (h Col I, Sigma, C5483-1MG), human collagen type V (h Col V, Abcam, ab7537), human collagen type III (h Col Ill, Abcam, ab7535) and 67B89 (domain of fibronectin, produced in E. coli) respectively over night at 4° C. ELISA-plates were washed 3 times with PBST (PBS+ 0.1% Tween) and blocked with 3% BSA/0.5% Tween/PBS 2 h at RT. After washing with PBST, dilution series of 1.1 μM to 7×10^−4 nM of dimers (CID 211999, CID 212000), dilution series of 100 nM to 7×10^−6 nM of tetramers (CID 212001 and CID 212704) and dilution series of 10 μM to 2 nM of dimer (CID 212705) were incubated on ELISA-plates 1 h at rt. Plates were washed with PBST and incubated with biotinylated anti-StrepTag-ab (Antikörper-online, ABIN1573895) with a dilution of 1:10.000 for 1 h at rt. The binding was visualized with a-rabbit-IgG-HRP (Sigma, A9169) with a dilution of 1:10.000 and as substrate TMB Plus von KEM EN TEC Diagnostic, Kat-Nr. 4395.

Type I collagen = Type I collagen (Homo sapiens, UniProt P02452+P08123); assay: SPR specificity vs Type I collagen; type: binding
Procedure: as §1, §2

Type III collagen = biological target: T2, Type III collagen (Homo sapiens, UniProt P02461); assay: SPR specificity vs Type III collagen; type: binding
T2 sequence (P02461 154-1221 limits assumed): T1 sequence (P02461 154-1221 limits assumed)
Procedure: as §1, §2

[1] = Soluble expression in Escherichia coli BL21(DE3); type: physicochemical; conditions: expression in E. coli BL21(DE3)
Procedure: Variants with affinity tag were expressed in Escherichia coli BL21(DE3) using a low copy plasmid system under regulation of a T7 promoter. Proteins were produced in soluble form after induction by lactose included in the medium (autoinduction medium). BL21 (DE3) competent cells were transformed with the expression plasmid, spread onto selective agar plates (kanamycin) and incubated overnight at 37° C. Precultures were inoculated from single colony in 3 ml 2×YT medium supplemented with 50 μg/ml kanamycin and cultured for 6 hours at 37° C. at 200 rpm in a conventional orbital shaker in culture tubes. […] Cultures were transferred to an orbital shaker and incubated at 30° C. and 200 rpm. […] Before the harvest, the OD600 was measured, samples adjusted to 0.6/OD600 were withdrawn, pelleted and frozen at −20° C. […]
Proteins with affinity tag were purified by affinity chromatography and size exclusion. […] Homogenous species of all purified ligands were obtained; no aggregation was detected. Following SOS-PAGE analysis positive fractions were pooled and their protein concentrations were measured. […] Protein concentrations were determined by absorbance measurement at 280 nm using the molar absorbent coefficient. […] Binding of Collagen II was evaluated by SPR measurements using a Biacore 3000 system. […]

[2] = biological target: T3, human collagen type I (h Col I) (Homo sapiens, UniProt P02452+P08123); assay: ELISA specificity vs human collagen type I; type: binding
T3 construct: purchased Sigma C5483-1MG
Procedure: as §3

[3] = biological target: extradomain B of fibronectin (Homo sapiens, UniProt P02751); assay: SPR control extradomain B of fibronectin; type: binding
Procedure: as §1, §2

[4] = biological target: T4, recombinant human collagen type II (h Col II) (Homo sapiens, UniProt P02458); assay: KD-determination by ELISA vs human collagen type II; type: binding
T4 construct: purchased Chondrex CHX-20051
Procedure: as §3

Chain of BSA (P02769 25-607): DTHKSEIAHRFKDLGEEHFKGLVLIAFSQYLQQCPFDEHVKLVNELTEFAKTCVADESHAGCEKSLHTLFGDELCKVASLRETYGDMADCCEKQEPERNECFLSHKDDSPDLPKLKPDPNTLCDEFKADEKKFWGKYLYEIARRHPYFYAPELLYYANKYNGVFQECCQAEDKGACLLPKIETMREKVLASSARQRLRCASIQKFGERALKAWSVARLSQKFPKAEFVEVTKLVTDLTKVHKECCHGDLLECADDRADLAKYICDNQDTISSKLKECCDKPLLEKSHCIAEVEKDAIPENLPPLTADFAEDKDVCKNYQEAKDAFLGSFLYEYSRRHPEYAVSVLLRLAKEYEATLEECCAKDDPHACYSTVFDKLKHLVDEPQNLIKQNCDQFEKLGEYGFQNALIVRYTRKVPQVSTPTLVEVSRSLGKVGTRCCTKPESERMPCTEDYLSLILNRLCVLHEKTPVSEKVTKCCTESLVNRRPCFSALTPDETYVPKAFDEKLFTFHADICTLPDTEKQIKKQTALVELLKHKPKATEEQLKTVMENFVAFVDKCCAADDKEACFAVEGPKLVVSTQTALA
T3 sequence (P02452 162-1218 limits assumed): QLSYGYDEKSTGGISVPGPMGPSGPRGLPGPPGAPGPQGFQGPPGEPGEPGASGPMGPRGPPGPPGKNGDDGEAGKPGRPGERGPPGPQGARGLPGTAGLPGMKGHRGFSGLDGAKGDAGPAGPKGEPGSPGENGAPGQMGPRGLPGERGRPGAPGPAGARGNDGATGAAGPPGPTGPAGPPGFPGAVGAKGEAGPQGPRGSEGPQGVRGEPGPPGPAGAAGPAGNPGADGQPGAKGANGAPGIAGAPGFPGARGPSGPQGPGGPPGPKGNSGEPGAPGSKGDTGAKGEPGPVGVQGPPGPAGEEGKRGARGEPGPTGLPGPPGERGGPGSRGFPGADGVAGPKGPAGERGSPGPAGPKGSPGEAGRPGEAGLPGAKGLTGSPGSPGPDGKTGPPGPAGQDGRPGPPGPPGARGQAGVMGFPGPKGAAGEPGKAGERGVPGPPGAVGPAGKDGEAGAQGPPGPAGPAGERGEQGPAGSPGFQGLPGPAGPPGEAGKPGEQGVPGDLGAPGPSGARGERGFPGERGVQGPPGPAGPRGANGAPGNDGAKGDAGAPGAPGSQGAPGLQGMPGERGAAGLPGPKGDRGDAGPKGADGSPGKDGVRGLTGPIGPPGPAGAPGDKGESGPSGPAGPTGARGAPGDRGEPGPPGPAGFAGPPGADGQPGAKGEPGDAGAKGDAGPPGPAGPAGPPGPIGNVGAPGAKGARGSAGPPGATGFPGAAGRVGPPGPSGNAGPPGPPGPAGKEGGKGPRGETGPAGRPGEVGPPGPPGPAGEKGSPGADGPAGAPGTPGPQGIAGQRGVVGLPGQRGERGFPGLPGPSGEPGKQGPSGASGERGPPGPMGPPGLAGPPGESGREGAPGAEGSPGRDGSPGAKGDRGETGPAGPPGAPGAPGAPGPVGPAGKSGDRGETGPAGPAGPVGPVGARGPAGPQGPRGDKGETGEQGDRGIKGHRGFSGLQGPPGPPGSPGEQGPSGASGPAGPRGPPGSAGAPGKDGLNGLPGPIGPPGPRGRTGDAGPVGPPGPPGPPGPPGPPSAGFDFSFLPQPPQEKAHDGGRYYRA
T3 sequence (P08123 80-1119 limits assumed): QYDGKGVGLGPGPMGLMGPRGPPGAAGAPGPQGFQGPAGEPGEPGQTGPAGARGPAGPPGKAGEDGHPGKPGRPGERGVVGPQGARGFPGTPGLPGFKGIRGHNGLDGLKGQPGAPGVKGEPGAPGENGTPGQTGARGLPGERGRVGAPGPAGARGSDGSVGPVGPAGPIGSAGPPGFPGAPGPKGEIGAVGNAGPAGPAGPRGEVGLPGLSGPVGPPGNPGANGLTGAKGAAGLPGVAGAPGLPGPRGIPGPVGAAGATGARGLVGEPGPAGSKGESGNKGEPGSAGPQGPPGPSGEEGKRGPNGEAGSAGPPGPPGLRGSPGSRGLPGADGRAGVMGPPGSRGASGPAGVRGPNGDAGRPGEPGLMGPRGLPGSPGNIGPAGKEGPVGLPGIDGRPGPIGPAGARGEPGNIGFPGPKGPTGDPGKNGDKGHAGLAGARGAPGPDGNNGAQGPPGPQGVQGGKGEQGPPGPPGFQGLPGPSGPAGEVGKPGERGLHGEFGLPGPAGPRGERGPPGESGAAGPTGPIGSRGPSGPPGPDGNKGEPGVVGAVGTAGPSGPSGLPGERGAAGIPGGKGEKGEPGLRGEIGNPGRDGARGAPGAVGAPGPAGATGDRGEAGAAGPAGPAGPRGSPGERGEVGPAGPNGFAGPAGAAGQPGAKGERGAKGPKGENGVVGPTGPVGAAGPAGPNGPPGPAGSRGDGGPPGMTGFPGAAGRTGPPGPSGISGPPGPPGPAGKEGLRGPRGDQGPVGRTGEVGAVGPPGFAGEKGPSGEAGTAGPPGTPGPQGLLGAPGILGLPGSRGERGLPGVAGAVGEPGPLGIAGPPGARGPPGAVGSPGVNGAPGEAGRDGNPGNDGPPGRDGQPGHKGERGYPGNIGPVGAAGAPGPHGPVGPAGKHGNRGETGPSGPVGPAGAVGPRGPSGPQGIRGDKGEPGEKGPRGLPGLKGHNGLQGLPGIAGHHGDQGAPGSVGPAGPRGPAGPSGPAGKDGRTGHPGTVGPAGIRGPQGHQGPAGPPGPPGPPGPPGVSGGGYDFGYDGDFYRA
Chain of Type I collagen (P02452 162-1218 limits assumed): as the sequence (P02452 162-1218 limits assumed) above
Chain of Type I collagen (P08123 80-1119 limits assumed): as the sequence (P08123 80-1119 limits assumed) above
T4 sequence (P02458 182-1241): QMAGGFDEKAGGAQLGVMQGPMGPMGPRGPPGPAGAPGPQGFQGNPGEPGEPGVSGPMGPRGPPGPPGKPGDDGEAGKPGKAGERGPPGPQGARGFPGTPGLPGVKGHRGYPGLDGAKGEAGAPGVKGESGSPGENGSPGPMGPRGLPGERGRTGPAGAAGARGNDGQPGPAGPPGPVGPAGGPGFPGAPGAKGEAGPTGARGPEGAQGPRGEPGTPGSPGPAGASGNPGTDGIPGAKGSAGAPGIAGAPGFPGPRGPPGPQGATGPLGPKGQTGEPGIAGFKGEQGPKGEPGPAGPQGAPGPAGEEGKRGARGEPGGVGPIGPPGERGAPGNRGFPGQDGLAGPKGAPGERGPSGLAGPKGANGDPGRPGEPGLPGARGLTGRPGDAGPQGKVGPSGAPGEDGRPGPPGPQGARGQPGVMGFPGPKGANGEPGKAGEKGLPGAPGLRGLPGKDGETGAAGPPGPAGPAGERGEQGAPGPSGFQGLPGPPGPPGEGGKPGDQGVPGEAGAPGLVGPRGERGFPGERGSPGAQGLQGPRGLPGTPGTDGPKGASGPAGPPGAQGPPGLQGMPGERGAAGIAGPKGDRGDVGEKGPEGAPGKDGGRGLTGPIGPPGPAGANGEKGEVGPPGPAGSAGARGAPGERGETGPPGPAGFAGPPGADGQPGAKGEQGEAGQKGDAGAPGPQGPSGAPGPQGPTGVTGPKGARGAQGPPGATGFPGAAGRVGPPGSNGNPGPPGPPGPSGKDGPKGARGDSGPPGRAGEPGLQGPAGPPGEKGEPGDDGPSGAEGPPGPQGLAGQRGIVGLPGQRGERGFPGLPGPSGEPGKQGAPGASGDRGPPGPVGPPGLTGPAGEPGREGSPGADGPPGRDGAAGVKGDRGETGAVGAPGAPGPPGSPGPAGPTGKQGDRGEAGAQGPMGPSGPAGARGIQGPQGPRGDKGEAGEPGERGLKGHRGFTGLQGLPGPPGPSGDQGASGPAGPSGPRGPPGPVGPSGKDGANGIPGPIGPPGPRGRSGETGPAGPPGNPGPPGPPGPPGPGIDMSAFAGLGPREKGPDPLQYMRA
Chain of extradomain B of fibronectin (P02751 1271-1359 limits assumed): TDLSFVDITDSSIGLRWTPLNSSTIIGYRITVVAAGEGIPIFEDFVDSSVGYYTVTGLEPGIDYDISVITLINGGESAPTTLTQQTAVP

| Substance | Binding to control BSA (SPR) (BSA) | binding to type III collagen (ELISA) (human collagen type III) | Binding to Type I collagen (SPR) (Type I collagen) | Binding to Type III collagen (SPR) (Type III collagen) | Solubility Soluble expression [1] [%] | binding to type I collagen (ELISA) [2] | Binding to control extradomain B of fibronectin (SPR) [3] | binding vs human type II collagen (ELISA, words) [4] |
| --- | --- | --- | --- | --- | --- | --- | --- | --- |
| CID 211190: type II collagen binding protein of SEQ ID NO: 1 (monomer) (NAASHDEAQLSALVEIWDLPNLTTRQKQKFIYSLQRDPSVSKEVLGEAQKLNDSQAPK; Col2 binding protein 211190) | not to controls | additionally | additional binding | additional binding | 95 | additionally | not to controls | specific binding |
| CID 211261: Type II Collagen binding protein of SEQ ID NO: 2 (monomer, motif 25Q-29Y-33W) (IAAKFDEAQSAADSEILHLPNLTEQQRHYFRRWLSDDPSVSTHILTQAQHLNDDQAPK; Col2 binding protein 211261) |  |  |  |  | 95 |  |  |  |
